Assay results taken from the RNAGym collection of RNA variant scans (doi:10.1073/pnas.2313332121).
Fewer inactive variants are shown than the library holds.

B1: TPR 5TU (parent)
chain: GGAUCUUCUCGAUCUAACAAAAAAGACAAAUCUGCCACAAAGCUUGAGAGCAUCUUCGGAUGCAGAGGCGGCAGCCUUCGGUGGCGCGAUAGCGCCAACGUUCUCAACUAUGACACGCAAAACGCGUGCUCCGUUGAAUGGAGUUUAUCAUG

Variants of: B1
Test: polymerase ribozyme fitness, log enrichment relative to wild type (log ratio); higher = more active; in vitro selection for triplet polymerase activity
Method in brief: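 Both subunits of a heterodimeric triplet polymerase ribozyme were given their own mutant library, built by PCR and transcribed. Each library was annealed with a biotinylated primer, the partner subunit and triplets, incubated frozen at −7 °C, and its extended constructs gel-excised, captured on streptavidin beads and amplified by RT-PCR, all in one round done in triplicate. Fitness is the logarithm of genotype enrichment relative to wild-type enrichment, with replicates averaged by inverse-variance weighting. That logarithm is base 2, and Illumina-sequenced genotypes needed ≥10 input reads and ≥1 read per output.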

Compared with A60U C116U G141A, G83A U101G U135C C149A is lower in “polymerase ribozyme fitness (log ratio)” value: -0.772 for the first, no more than -4.2 for the second.

A39G A60C G84A C87G C95G C118G U145G and U7G U31A C57U G94C U135C G140U U148C cannot be ordered by “polymerase ribozyme fitness (log ratio)” value: no more than -4.2 for the first, no more than -4.2 for the second.

Compared with C8A A49G A60U C75U U78C C85G C116G G140A, C51U U127A A142G is higher in “polymerase ribozyme fitness (log ratio)” value: no more than -4.2 for the first, -4.07 for the second.

Compared with C38U G83A C99G, C54U G83A A147U is higher in “polymerase ribozyme fitness (log ratio)” value: -3.15 for the first, -0.818 for the second.

Compared with C87U G88C, G58C G92U A122G is higher in “polymerase ribozyme fitness (log ratio)” value: -3.83 for the first, -1.45 for the second.

A26C U33A G92C C105G and G59C G65C G136U cannot be ordered by “polymerase ribozyme fitness (log ratio)” value: no more than -4.2 for the first, no more than -4.2 for the second.

A49C G50U U53G G81C C87U A89C A106U A150C and A3C A29U A91U cannot be ordered by “polymerase ribozyme fitness (log ratio)” value: no more than -4.2 for the first, no more than -4.2 for the second.

Compared with A22G A89C, A22U A47C U55G G84U C125G is lower in “polymerase ribozyme fitness (log ratio)” value: -0.303 for the first, -3.06 for the second.

First: A41C C79U C95U
Second: U4G C10A U56A G71C G84C
The “polymerase ribozyme fitness (log ratio)” value of the first is higher: -3.78 for the first, no more than -4.2 for the second.

Going from C85U A147U to A23U G48A A113G A120U, the “polymerase ribozyme fitness (log ratio)” value falls from -0.285 to no more than -4.2.

First: C8A C57G U82A A98G
Second: A47G G152U
The “polymerase ribozyme fitness (log ratio)” value of the first is lower: no more than -4.2 for the first, -2.47 for the second.

Going from C14G A30C C35A G48A C87G U102A to G92U A147U, the “polymerase ribozyme fitness (log ratio)” value rises from no more than -4.2 to 0.301.

Compared with U4G C5U U55G A106C, U6G U33A G42U C57U A64C C85G A107G G117C is lower in “polymerase ribozyme fitness (log ratio)” value: -2.25 for the first, no more than -4.2 for the second.

First: A60G G83A A98G
Second: A39U G86A U102G C103G A106C
The “polymerase ribozyme fitness (log ratio)” value of the first is higher: 0.0303 for the first, no more than -4.2 for the second.

G83C A107U G143A U146C and U6A A12G A30C A66U C95A A106G A120G G126C A150U cannot be ordered by “polymerase ribozyme fitness (log ratio)” value: no more than -4.2 for the first, no more than -4.2 for the second.

Compared with A20G A26G G65A C69A C105A, C105U G143U is higher in “polymerase ribozyme fitness (log ratio)” value: no more than -4.2 for the first, -2.41 for the second.

U15C A24C C36U A40U C79G C93G G100A C125G U139C and A47C U77A C79A A89U cannot be ordered by “polymerase ribozyme fitness (log ratio)” value: no more than -4.2 for the first, no more than -4.2 for the second.

A28U C36A A47G G59A C85A C129U U145A and A91G G92U G140A cannot be ordered by “polymerase ribozyme fitness (log ratio)” value: no more than -4.2 for the first, no more than -4.2 for the second.

A41U G58A A60U C93G and C5A C14G G59A C85A C118G U139A cannot be ordered by “polymerase ribozyme fitness (log ratio)” value: no more than -4.2 for the first, no more than -4.2 for the second.

First: G11U U31A A60G C93A
Second: G58C C87A G136A U144G
The “polymerase ribozyme fitness (log ratio)” value of the first is higher: -3.94 for the first, no more than -4.2 for the second.

Compared with A24U A66C A73G C79G C87A G88U C116A C118A, A97U A119G U130C is higher in “polymerase ribozyme fitness (log ratio)” value: no more than -4.2 for the first, 0.572 for the second.

Going from C38U C85U to G11C A40G U82A G94C G140U, the “polymerase ribozyme fitness (log ratio)” value falls from -0.884 to no more than -4.2.

First: C57U G59C G83C
Second: C57U U146G
The “polymerase ribozyme fitness (log ratio)” value of the first is lower: -1.17 for the first, -0.656 for the second.

First: G48U C93A
Second: G59A A73U C75U C87A C95A G100U U127G A150C
The “polymerase ribozyme fitness (log ratio)” value of the first is higher: -2.5 for the first, no more than -4.2 for the second.

Compared with A16U C85U, U53C G94A A97G is lower in “polymerase ribozyme fitness (log ratio)” value: -2.1 for the first, -2.46 for the second.

First: A17C U31G G48A U53A G80C C85U G133U G140U A142U G152U
Second: G50A C85U
The “polymerase ribozyme fitness (log ratio)” value of the first is lower: no more than -4.2 for the first, -1.67 for the second.

G58C G67U A91U A107G C108U C116G C125U C129U and U4G G25U G48U U55G G84C A115C U134C cannot be ordered by “polymerase ribozyme fitness (log ratio)” value: no more than -4.2 for the first, no more than -4.2 for the second.

Compared with C36U A98U, U56A G81U C93G is lower in “polymerase ribozyme fitness (log ratio)” value: -1.07 for the first, -3.18 for the second.

First: A52G C85G G141A
Second: C5A A29C G50U C51U G88A U90C
The “polymerase ribozyme fitness (log ratio)” value of the first is higher: -1.37 for the first, no more than -4.2 for the second.

Compared with C35U C95U G126A, U6A A64U A66G G84A is lower in “polymerase ribozyme fitness (log ratio)” value: -1.49 for the first, no more than -4.2 for the second.

Going from C38A U55C A66G G80A U90A U127C to A3G A39C, the “polymerase ribozyme fitness (log ratio)” value rises from no more than -4.2 to -3.26.

Going from C54U A142U to A39U G94U A122U G143A A147C, the “polymerase ribozyme fitness (log ratio)” value falls from -0.665 to no more than -4.2.

Going from U61A A98U to C14U U53A, the “polymerase ribozyme fitness (log ratio)” value falls from -1.28 to -2.41.

Compared with A28U C32G C87U C99G, U55A C57G is higher in “polymerase ribozyme fitness (log ratio)” value: no more than -4.2 for the first, -0.56 for the second.

Compared with A20C A40C U56G C96G A121U, C14U A52U C85G G133C A142G is lower in “polymerase ribozyme fitness (log ratio)” value: -1.15 for the first, no more than -4.2 for the second.

Compared with C14U A52G G62A C96G U104G, A41C G84A U109G is higher in “polymerase ribozyme fitness (log ratio)” value: no more than -4.2 for the first, -3.33 for the second.

Compared with A52C A138G, U7A A22U U44A C51U G67A G94C C99U G141C is lower in “polymerase ribozyme fitness (log ratio)” value: -3.62 for the first, no more than -4.2 for the second.

First: A19C C54G G94U U111A A115C C125U
Second: U6C G48C G59U U145C
The “polymerase ribozyme fitness (log ratio)” value of the first is lower: no more than -4.2 for the first, -0.905 for the second.

First: A47G G59A C103A C131U U134C
Second: A29U C38U A64U G88A A97U C116U
The “polymerase ribozyme fitness (log ratio)” value of the first is higher: -2.12 for the first, no more than -4.2 for the second.

Compared with U15G G83U, C36U A39C U82C G84U A119C A120U G133C A142U is lower in “polymerase ribozyme fitness (log ratio)” value: -0.494 for the first, no more than -4.2 for the second.

First: C63U C85A
Second: A17G A21U A49C G59C G74U C85G
The “polymerase ribozyme fitness (log ratio)” value of the first is higher: -3.57 for the first, no more than -4.2 for the second.

First: A26U G34U G88C C105U U130A
Second: C118A U139G
The “polymerase ribozyme fitness (log ratio)” value of the first is lower: no more than -4.2 for the first, -0.933 for the second.
